Assays:
[1] = target: trastuzumab light chain of SMCA design 9820-9823_1 (trastuzumab/cetuximab bispecific system), Q38E_Q124E_Q160E_T180E
[2] = target: trastuzumab light chain of SMCA design 9820-9823_1 (trastuzumab/cetuximab bispecific system), Q38E_Q124E_Q160E_T180E; experiment: SMCA, LC-MS after co-expression of the four chains; difference from the wild-type trastuzumab/cetuximab construct at the same DNA ratio
[3] = target: Cetuximab light chain F116A_V133G_L135V_S176R; experiment: SMCA co-expression, LC-MS; competing light chain m36; estimated change (***)
[4] = target: Cetuximab light chain F116A_V133G_L135V_S176R; experiment: SMCA co-expression, LC-MS; competing light chain m36
[5] = target: D3H44 light chain F116A_V133G_L135V_S176R; experiment: SMCA: 2 heavy + 2 light chains co-expressed, protein A, LC-MS; competing light chain m58
[6] = target: D3H44 light chain F116A_V133G_L135V_S176R; experiment: SMCA co-expression, LC-MS; competing light chain m36; estimated change (***)
[7] = target: D3H44 light chain F116A_V133G_L135V_S176R; experiment: SMCA co-expression, LC-MS; competing light chain m36
[8] = target: D3H44 light chain F116A_V133G_L135V_S176R; experiment: SMCA co-expression, LC-MS; competing light chain m32; estimated change (***)
[9] = target: D3H44 light chain F116A_V133G_L135V_S176R; experiment: SMCA co-expression, LC-MS; competing light chain m32
[10] = target: Cetuximab light chain Q124E_V133W_S176T_T178L_T180E; experiment: SMCA co-expression, LC-MS; competing light chain m2
[11] = target: D3H44 light chain Q124R_V133A_S176T_T178R; experiment: SMCA co-expression, LC-MS; competing light chain m12
[12] = target: D3H44 light chain Q124R_V133A_S176T_T178R; experiment: SMCA co-expression, LC-MS; competing light chain m8
[13] = target: D3H44 light chain Q124E_V133E; experiment: SMCA: four chains co-expressed in CHO-3E7, protein A, LC-MS; competing light chain m35
[14] = target: D3H44 light chain Q124E_V133E; experiment: SMCA: four chains co-expressed in CHO-3E7, protein A, LC-MS; competing light chain m45
[15] = target: cetuximab light chain of SMCA design 9820-9823_1 (trastuzumab/cetuximab bispecific system), Q38R_Q124R_Q160K_T178R; experiment: SMCA: H1, H2, L1 and L2 co-expressed in CHO-3E7 cells, protein A purification, deglycosylation, LC-MS; competing light chain is the trastuzumab light chain (L1)
[16] = target: cetuximab light chain of SMCA design 9820-9823_1 (trastuzumab/cetuximab bispecific system), Q38R_Q124R_Q160K_T178R; experiment: SMCA, LC-MS after co-expression of the four chains; difference from the wild-type trastuzumab/cetuximab construct at the same DNA ratio
[17] = target: D3H44 light chain Q124R_T178R; experiment: SMCA, LC-MS; change vs wild-type bispecific; competing light chain m27
[18] = target: D3H44 light chain Q124R_T178R; experiment: SMCA: LC-MS of protein A purified product after co-expression of H1, H2, L1, L2 in CHO-3E7; competing light chain m51
[19] = target: D3H44 light chain Q124R_T178R; experiment: SMCA, LC-MS of 4 co-expressed chains; competing light chain m27
[20] = target: D3H44 light chain Q38R_Q124R_Q160K_T178R; experiment: SMCA: four chains co-expressed in CHO-3E7, protein A, LC-MS; competing light chain m41
[21] = target: tissue factor (TF) antigen (UniProt P13726); experiment: SPR (ProteOn XPR36), Fab captured by His tag on anti-penta-His surface, TF injected as analyte; against wild-type D3H44 Fab; * = estimated from a Fab differing only in the L chain tag
[22] = target: tissue factor (TF) antigen (UniProt P13726); experiment: SPR (ProteOn XPR36), Fab captured by His tag on anti-penta-His surface, TF injected as analyte, 1:1 fit; * = estimated from a Fab differing only in the L chain tag
[23] = target: D3H44 light chain S131E; experiment: SMCA: LC-MS of protein A purified product after co-expression of H1, H2, L1, L2 in CHO-3E7; competing light chain m53
[24] = target: D3H44 light chain Q124E_S176L_T180E; experiment: SMCA, LC-MS of 4 co-expressed chains; competing light chain m26
[25] = target: D3H44 light chain Q124E_Q160E_T178E; experiment: as above
[26] = target: D3H44 light chain Q124E_Q160E_T178E; experiment: SMCA, LC-MS; estimated change vs similar wild type (***); competing light chain m26
[27] = target: D3H44 light chain Q124E_Q160E_T178E; experiment: SMCA, LC-MS; change vs wild-type bispecific; competing light chain m42
[28] = target: D3H44 light chain Q124E_Q160E_T178E; experiment: SMCA, LC-MS of 4 co-expressed chains; competing light chain m42
[29] = target: D3H44 light chain Q124E_S176L_T180E; experiment: SMCA: 2 heavy + 2 light chains co-expressed, protein A, LC-MS; competing light chain m16
[30] = target: D3H44 light chain Q124E_S176L_T180E; experiment: SMCA, LC-MS; change vs wild-type bispecific; competing light chain m26
[31] = target: D3H44 light chain Q124E_S131T_T178Y_T180E; experiment: SMCA: LC-MS of protein A purified product after co-expression of H1, H2, L1, L2 in CHO-3E7; competing light chain m52
[32] = target: D3H44 light chain Q124E_Q160E_T178E; experiment: as above
[33] = target: D3H44 light chain F116A_Q124R_L135V_T178R; experiment: SMCA, LC-MS; change vs wild-type bispecific; competing light chain m29
[34] = target: D3H44 light chain F116A_Q124R_L135V_T178R; experiment: SMCA, LC-MS of 4 co-expressed chains; competing light chain m29
[35] = target: D3H44 light chain F116A_Q124R_L135V_T178R; experiment: SMCA, LC-MS; change vs wild-type bispecific; competing light chain m45
[36] = target: D3H44 light chain F116A_Q124R_L135V_T178R; experiment: SMCA: 2 heavy + 2 light chains co-expressed, protein A, LC-MS; competing light chain m41
[37] = target: Trastuzumab light chain Q38E_Q124E_Q160E_T180E; experiment: SMCA: four chains co-expressed in CHO-3E7, protein A, LC-MS; competing light chain m39
[38] = target: D3H44 light chain Q124R_T178R; experiment: SMCA, LC-MS of 4 co-expressed chains; competing light chain m30
[39] = target: D3H44 light chain Q124R_T178R; experiment: SMCA, LC-MS of 4 co-expressed chains; competing light chain m25
[40] = target: D3H44 light chain Q124R_T178R; experiment: SMCA, LC-MS; change vs wild-type bispecific; competing light chain m25
[41] = target: D3H44 light chain Q124R_T178R; experiment: SMCA, LC-MS; change vs wild-type bispecific; competing light chain m30
[42] = target: D3H44 light chain Q124R_T178R; experiment: SMCA: H1, H2, L1, L2 co-expressed in CHO-3E7, protein A, LC-MS; competitor light chain m34
[43] = target: D3H44 light chain Q124R_T178R; experiment: SMCA: H1, H2, L1, L2 co-expressed in CHO-3E7, protein A, LC-MS; competitor light chain m24
[44] = target: Cetuximab light chain V133G_N137K_S174R_S176R; experiment: SMCA co-expression, LC-MS; competing light chain m24
[45] = target: Cetuximab light chain V133G_N137K_S174R_S176R; experiment: SMCA co-expression, LC-MS; competing light chain m16; estimated change (***)
[46] = target: Cetuximab light chain Q124R_V133A_S176T_T178R; experiment: SMCA co-expression, LC-MS; competing light chain m12; estimated change (***)
[47] = target: Cetuximab light chain Q124R_V133A_S176T_T178R; experiment: SMCA co-expression, LC-MS; competing light chain m12

Substance: trastuzumab full-length heavy chain of SMCA design 9820-9823_1 (trastuzumab/cetuximab bispecific system), Q39R_H172R_Q179K (from UniProt P0DOX5 2-448)
- % H1L1 Pairing (over all H1 species) [1]: 100%
- Change in % H1L1 Pairing (over all H1 species) with respect to wild type [2]: 6%

Substance: Cetuximab heavy chain L124E_A139W
- Change in % H2L2 Pairing (over all H2 species) with respect to wild type [3]: 17%
- % H2L2 Pairing (over all H2 species) [4]: 42.1%

Substance: D3H44 heavy chain L124E_A139W (from UniProt P0DOX5 2-448)
- % H1L1 Pairing (over all H1 species) [5]: 100%
- Change in % H1L1 Pairing (over all H1 species) with respect to wild type [6]: 25.8%
- % H1L1 Pairing (over all H1 species) [7]: 46.8%
- Change in % H1L1 Pairing (over all H1 species) with respect to wild type [8]: 43.3%
- % H1L1 Pairing (over all H1 species) [9]: 100%

Substance: Cetuximab heavy chain L124A_L143F_Q179K
- Change in % H2L2 Pairing (over all H2 species) with respect to wild type [10]: 1.7%

Substance: D3H44 heavy chain L124W_L143E_K145T_Q179E (from UniProt P0DOX5 2-448)
- % H1L1 Pairing (over all H1 species) [11]: 47.7%
- Change in % H1L1 Pairing (over all H1 species) with respect to wild type [11]: 7.1%
- Change in % H1L1 Pairing (over all H1 species) with respect to wild type [12]: 40.4%

Substance: D3H44 full-length heavy chain L143R (from UniProt P0DOX5 2-448)
- % H1L1 Pairing (over all H1 species) [13]: 97.1%
- % H1L1 Pairing (over all H1 species) [14]: 89.2%

Substance: cetuximab full-length heavy chain of SMCA design 9820-9823_1 (trastuzumab/cetuximab bispecific system), Q39E_L143E_K145T_Q179E
- % H2L2 Pairing (over all H2 species) [15]: 52.3%
- Change in % H2L2 Pairing (over all H2 species) with respect to wild type [16]: 22.7%

Substance: D3H44 heavy chain L143E_K145T_Q179E_S188L (from UniProt P0DOX5 2-448)
- Change in % H1L1 Pairing (over all H1 species) with respect to wild type [17]: 32.4%
- % H1L1 Pairing (over all H1 species) [18]: 94.3%
- % H1L1 Pairing (over all H1 species) [19]: 94.3%

Substance: D3H44 full-length heavy chain Q39E_L143E_K145T_Q179E (from UniProt P0DOX5 2-448)
- % H1L1 Pairing (over all H1 species) [20]: 86.6%

Substance: D3H44 H1L1 Fab heterodimer of LCCA Set # 9645 (H1 L143E_K145T_Q179E, L1 Q124K_T178R)
- change in median KD compared to wild type, -(log(KD design)-log(KD wt)) [21]: 0.05 log
- Kd [22]: 0.14 nM

Substance: D3H44 heavy chain S186K (from UniProt P0DOX5 2-448)
- % H1L1 Pairing (over all H1 species) [23]: 100%
- % H1L1 Pairing (over all H1 species) [24]: 100%
- % H1L1 Pairing (over all H1 species) [25]: 100%
- Change in % H1L1 Pairing (over all H1 species) with respect to wild type [26]: 43.3%
- Change in % H1L1 Pairing (over all H1 species) with respect to wild type [27]: 60.9%
- % H1L1 Pairing (over all H1 species) [28]: 98.2%
- % H1L1 Pairing (over all H1 species) [29]: 100%
- Change in % H1L1 Pairing (over all H1 species) with respect to wild type [30]: 52.5%
- % H1L1 Pairing (over all H1 species) [31]: 100%
- % H1L1 Pairing (over all H1 species) [32]: 100%

Substance: D3H44 heavy chain A139W_L143E_K145T_Q179E (from UniProt P0DOX5 2-448)
- Change in % H1L1 Pairing (over all H1 species) with respect to wild type [33]: 41.9%
- % H1L1 Pairing (over all H1 species) [34]: 100%
- Change in % H1L1 Pairing (over all H1 species) with respect to wild type [35]: 58.1%
- % H1L1 Pairing (over all H1 species) [36]: 100%

Substance: Trastuzumab full-length heavy chain Q39R_H172R_Q179K (from UniProt P0DOX5 2-448)
- % H2L2 Pairing (over all H2 species) [37]: 100%

Substance: D3H44 heavy chain L143E_K145T_Q179E (from UniProt P0DOX5 2-448)
- % H1L1 Pairing (over all H1 species) [38]: 100%
- % H1L1 Pairing (over all H1 species) [39]: 100%
- Change in % H1L1 Pairing (over all H1 species) with respect to wild type [40]: 38.1%
- Change in % H1L1 Pairing (over all H1 species) with respect to wild type [41]: 38.1%
- % H1L1 Pairing (over all H1 species) [42]: 100%
- % H1L1 Pairing (over all H1 species) [43]: 100%

Substance: Cetuximab heavy chain L124E_H172T
- % H2L2 Pairing (over all H2 species) [44]: 44%
- Change in % H2L2 Pairing (over all H2 species) with respect to wild type [44]: 14.4%
- Change in % H2L2 Pairing (over all H2 species) with respect to wild type [45]: 1.6%

Substance: Cetuximab heavy chain L124W_L143E_K145T_Q179E
- Change in % H2L2 Pairing (over all H2 species) with respect to wild type [46]: 33%
- % H2L2 Pairing (over all H2 species) [47]: 58.1%
